The subject of the data set is MS2 coat protein. Description: apparent KD of MS2 coat protein; designed switch direction (-1 OFF switch, 1 ON switch): 1; higher = weaker reporter binding. Summed up: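 The apparent KD reported per design is the median over clusters of curve fits to normalised cluster fluorescence. The RNA switches were transcribed on Illumina chips by stalled E. coli RNA polymerase. SNAP-549-labelled MS2 coat protein was titrated from 0.7 or 1.5 nM, doubling up to 3 µM, in Tris-HCl pH 7.5 buffer containing KCl, MgCl2, BSA, DTT, tRNA and Tween-20, with no input, 200 uM small-molecule ligand, or an oligonucleotide input.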

The mark [1] stands for this setting: input ligand: microRNA oligo, concentration not stated.
Setting [2] is: Eterna round: R95, input ligand: FMN 200 uM.
[3] abbreviates: Eterna round: R95, input ligand: microRNA oligo, concentration not stated.
[4] abbreviates: Eterna round: R95, input ligand: none.

“UGUUGUAUUACAGGAUAUCUAGUAUUUUUAUUGAGAGAAGGGUAUUCACAUGAGGAUCACCCAUGUAUAUACGAGGAAGUUGUG [JMF's solution 55] (Eterna round: R96, puzzle: Same State NG 1)”: under setting [1], the “apparent KD of MS2 coat protein” value stood at 34.8 nM.
Still for that read-out and setting: as for “UGUUGUAUUACAGGAUAUCUAUGAUUUAUAUUUAGAGAAGGGUAUUCACAUGAGGAUCACCCAUGUAUAUACGAGGAAGUUGUG [JMF's solution 61] (Eterna round: R96, puzzle: Same State NG 1)”, the figure is 33.6 nM; as for “UGUUGUAUUACAGGAUAUCUAUGAUUUUUUUUUAGAGAAGGGUAUUCACAUGAGGAUCACCCAUGUAUAUACGAGGAAGUUGUG [JMF's solution 65] (Eterna round: R96, puzzle: Same State NG 1)”, 39.8 nM; as for “UGUUGUAUUACAGGAUAUCUAUGGUUUUUAUUUAGAGAAGGGUAUUCACAUGAGGAUCACCCAUGUAUAUACGAGGAAGUUGUG [JMF's solution 58] (Eterna round: R96, puzzle: Same State NG 1)”, 41.6 nM.
As to “UGUUGUAUUACAGGAUAUCUAUUAGGUUUAUUUAGAGAAGGGUAUUCACAUGAGGAUCACCCAUGUAUAUACGAGGAAGUUGUG [JMF's solution 87] (Eterna round: R96, puzzle: Same State NG 1)”, the “apparent KD of MS2 coat protein” value under setting [1] came out at 41.8 nM.
In the case of “UGUUGUAUUACAGGAUAUCUAUUAGUUUUAUUUAGAGAAGGGUAUUCACAUGAGGAUCACCCAUGUAUAUACGAGGAAGUUGUG [JMF's solution 14] (Eterna round: R96, puzzle: Same State NG 1)”, the “apparent KD of MS2 coat protein” value under setting [1] came to 42.2 nM.
As for “UGUUGUAUUACAGGAUAUCUAUUAUGUUUAUUUAGAGAAGGGUAUUCACAUGAGGAUCACCCAUGUAUAUACGAGGAAGUUGUG [JMF's solution 16] (Eterna round: R96, puzzle: Same State NG 1)”, the “apparent KD of MS2 coat protein” value under setting [1] is 37.5 nM.
Consider “UGUUGUAUUACAGGAUAUCUAUUAUUAUUAUUUAGAGAAGGGUAUUCACAUGAGGAUCACCCAUGUAUAUACGAGGAAGUUGUG [JMF's solution 17] (Eterna round: R96, puzzle: Same State NG 1)”, for which, under setting [1], the “apparent KD of MS2 coat protein” value was determined as 33.8 nM.
“UGUUGUAUUACAGGAUAUCUAUUAUUGUUAUUUAGAGAAGGGUAUUCACAUGAGGAUCACCCAUGUAUAUACGAGGAAGUUGUG [JMF's solution 18] (Eterna round: R96, puzzle: Same State NG 1)”: the “apparent KD of MS2 coat protein” value under setting [1] was found to be 39.9 nM.
For “UGUUGUAUUACAGGAUAUCUAUUAUUUAUAUUUAGAGAAGGGUAUUCACAUGAGGAUCACCCAUGUAUAUACGAGGAAGUUGUG [JMF's solution 19] (Eterna round: R96, puzzle: Same State NG 1)”, under setting [1], the “apparent KD of MS2 coat protein” value was determined as 36.4 nM.
For the sequence “UGUUGUAUUACAGGAUAUCUAUUAUUUUAAUUUAGAGAAGGGUAUUCACAUGAGGAUCACCCAUGUAUAUACGAGGAAGUUGUG [JMF's solution 21] (Eterna round: R96, puzzle: Same State NG 1)”, under setting [1], the “apparent KD of MS2 coat protein” value came to 38.4 nM.
Consider “UGUUGUAUUACAGGAUAUCUAUUAUUUUUAGUUAGAGAAGGGUAUUCACAUGAGGAUCACCCAUGUAUAUACGAGGAAGUUGUG [JMF's solution 26] (Eterna round: R96, puzzle: Same State NG 1)”, for which the “apparent KD of MS2 coat protein” value under setting [1] is 35.7 nM.
As for “UGUUGUAUUACAGGAUAUCUAUUAUUUUUAUAUAGAGAAGGGUAUUCACAUGAGGAUCACCCAUGUAUAUACGAGGAAGUUGUG [JMF's solution 28] (Eterna round: R96, puzzle: Same State NG 1)”, the “apparent KD of MS2 coat protein” value under setting [1] was determined as 29.6 nM.
With “UGUUGUAUUACAGGAUAUCUAUUGUUAUUAUUUAGAGAAGGGUAUUCACAUGAGGAUCACCCAUGUAUAUACGAGGAAGUUGUG [JMF's solution 74] (Eterna round: R96, puzzle: Same State NG 1)”, the “apparent KD of MS2 coat protein” value under setting [1] was 33 nM.
As for “UGUUGUAUUACAGGAUAUCUAUUGUUUUAAUUUAGAGAAGGGUAUUCACAUGAGGAUCACCCAUGUAUAUACGAGGAAGUUGUG [JMF's solution 76] (Eterna round: R96, puzzle: Same State NG 1)”, the “apparent KD of MS2 coat protein” value under setting [1] is 40.6 nM.
For the sequence “UGUUGUAUUACAGGAUAUCUAUUGUUUUUAUUUAGAGAAGGGUAUUCACAUGAGGAUCACCCAUGUAUAUACGAGGAAGUUGUG [JMF's solution 12] (Eterna round: R96, puzzle: Same State NG 1)”, under setting [1], the “apparent KD of MS2 coat protein” value was 40.6 nM.
Consider “UGUUGUUAAUUAGGAUAUGGACACAUGAGGAUCACCCAUGUAAUGUCGAUGCUAUGUGGACACGUUCAGAAGGAAUGGCUAACA [SameState NG2 #92] (Eterna round: R96, puzzle: Same State NG 2)”, for which the “apparent KD of MS2 coat protein” value runs as follows: (input ligand: FMN 200 uM) 29.7 nM; under setting [1], 53.2 nM; (input ligand: none) 58.4 nM.
For “UGUUGUUAAUUAGGAUAUGGUCACAUGAGGAUCACCCAUGUAAUGUCGAUGCUAUGUGGAUACGAUCAGAAGGAAUGGCUAACA [SameState NG2 #94] (Eterna round: R96, puzzle: Same State NG 2)” the same measures were 93.3 nM, 225 nM and 175 nM.
Consider “UUAAAACAUGAGGAUCACCCAUGUCAACAAAGUCGAGGAUAUGGGCAAUUAUUAUUAGAACCAGAAGGCGAAUAUU [Mat - Same State 1 - Mod of UCT - D28] (puzzle: Same State 1)”, for which the “apparent KD of MS2 coat protein” value reads like this: under setting [2], 27.1 nM; under setting [3], 260 nM; under setting [4], 289 nM.
For “UUAAGCAGCGGGCAGGAUAUGUAUUAAAAUACAUGAGGAUCACCCAUGUGCAGGUGUAACACCUGACAGAAGGGCCAAUCGGUGC [Soteed - 9] (puzzle: Same State 2)” the same measures were 36.3 nM, 197 nM and 329 nM.
As for “UUAAUAAUGUAAGGAUAUACAUGAGGAUUUCUCGUAGAAGGUACAGGACAUGAGGAUCACCCAUGUAUCGCUCAGAAGAGCGUA [Mat - Same State NG 1 - JL mod - D24] (Eterna round: R96, puzzle: Same State NG 1)”, the “apparent KD of MS2 coat protein” value (input ligand: FMN 200 uM) is 1400 nM, the “apparent KD of MS2 coat protein” value under setting [1] was found to be 715 nM and the “apparent KD of MS2 coat protein” value (input ligand: none) stood at 1750 nM.
For “UUAAUAAUGUAAGGAUAUACAUGAGGAUUUCUCGUAGAAGGUACAGGACAUGAGGAUCACCCAUGUAUCGCUCCGUAGAGCGUA [Mat - Same State NG 1 - JL mod - D23] (Eterna round: R96, puzzle: Same State NG 1)” the same measures were 601 nM, 228 nM and 299 nM.
As to “UUAAUAAUGUAAGGAUAUACAUGAGGAUUUCUCGUAGAAGGUACAGGACAUGAGGAUCACCCAUGUAUCGCUCGAAAGAGCGUA [Mat - Same State NG 1 - JL mod - D25] (Eterna round: R96, puzzle: Same State NG 1)”, the “apparent KD of MS2 coat protein” value (input ligand: FMN 200 uM) is 521 nM, the “apparent KD of MS2 coat protein” value under setting [1] was 217 nM and the “apparent KD of MS2 coat protein” value (input ligand: none) is 1130 nM.
In the case of “UUAAUAAUGUUAGGAUAUACAUGAGGAAUCCUCGUAGAAGGAACAUGACAUGAGGAUCACCCAUGUAGCGCUCGAAAGAGCGCA [Mat - Same State NG 1 - JL mod - D48] (Eterna round: R96, puzzle: Same State NG 1)”, the “apparent KD of MS2 coat protein” value (input ligand: FMN 200 uM) is 25.6 nM, the “apparent KD of MS2 coat protein” value under setting [1] stood at 16.3 nM and the “apparent KD of MS2 coat protein” value (input ligand: none) was found to be 417 nM.
For “UUAAUGAAGUAAGGAUAUACAUGAGGAUCACUCGUAGAAGGUACUAUACAUGAGGAUCACCCAUGUUCCGGUCAGAAGACUGGA [Mat - Same State NG 1 - JL mod - D3] (Eterna round: R96, puzzle: Same State NG 1)” the same measures were 598 nM, 411 nM and 316 nM.
The matching figures for “UUAAUGAUGUAAGGAUAUACAUGAGGAAAUCUCGUAGAAGGUACAGGACAUGAGGAUCACCCAUGUGUCGCUCAGAAGAGCGUA [Mat - Same State NG 1 - JL mod - D18] (Eterna round: R96, puzzle: Same State NG 1)”: 86.3 nM, 39.6 nM and 71.2 nM.
As for “UUAAUUAAUUAAUUAUACAUGAGGAUCACCCAUGUAAGUGAUCAGGAUAUCAGCUCGUUUAGAGCUGAGAAGGGAUACAUGUAA [SSNG3/13-A3] (Eterna round: R96, puzzle: Same State NG 3)”, the “apparent KD of MS2 coat protein” value was 111 nM (input ligand: FMN 200 uM), 139 nM under setting [1] and 214 nM (input ligand: none).
For “UUAAUUAUGUAAGGAUAUACAUGAGGAUUUCUCGUAGAAGGUACAUUACAUGAGGAUCACCCAUGUGGGUGUCAGAAGACGCCA [Mat - Same State NG 1 - JL mod - D12] (Eterna round: R96, puzzle: Same State NG 1)” the same measures were 269 nM, 210 nM and 404 nM.
For the sequence “UUAAUUUACUGAGGAUAUCGUGUCGACUGAGUUGACAUGAGGAUCACCCAUGUGUGAAGUGGUAUCGAGAAGGCAGUUUUCUUA [JR_SSNG2_Sub026] (Eterna round: R96, puzzle: Same State NG 2)”, the “apparent KD of MS2 coat protein” value is 19 nM (input ligand: FMN 200 uM), 76.9 nM under setting [1] and 122 nM (input ligand: none).
For “UUACAUGAGGAUCACCCAUGUCGCUGGUAAACUUCGAACCCGCAGGAUAUGUAUGCCACUUUACGACAGAAGGGCGGGUGCCUG [Eternabot solution 47] (Eterna round: R96, puzzle: Same State NG 3)”, the “apparent KD of MS2 coat protein” value was 37.9 nM (input ligand: FMN 200 uM), 50.3 nM under setting [1] and 64.3 nM (input ligand: none).

Values taken from the supplement of paper PMC9170038.
